The term Kd denotes a measure of binding affinity in units of concentration.

Among the data in PMC10986471 (Microbiology Spectrum, 2024) are Kd values, retold here.

Common to all, as to test: ELISA
Common to all, as to details: both partners purified
(In an ELISA, binding on a coated surface is turned into a signal by an enzyme label.)

The target of experiment [1] is RBD of the Beta variant (B.1.351 lineage) (SARS-CoV-2 Beta (B.1.351), K417N | E484K | N501Y).
The target of experiment [2] is RBD of the Gamma variant (P.1 lineage) (SARS-CoV-2 Gamma (P.1), K417T | E484K | N501Y).
Experiment [3] addresses RBD of the Delta variant (B.1.617.2 lineage) (SARS-CoV-2 Delta (B.1.617.2), L452R | T478K).
Experiment [4] concerns the target RBD^B.1 (receptor-binding domain of Spike^B.1) (SARS-CoV-2 B.1 (RBD as Wuhan-Hu-1), UniProt P0DTC2).
In experiment [5] the target is RBD of the Alpha variant (B.1.1.7 lineage) (SARS-CoV-2 Alpha (B.1.1.7), N501Y).

B1: CSW1-1805 (antibody, V domains shown)
VH: EVQLQQSGPELVKPGASLRISCRTSEYTFTENTMYWVKQSHGKSLEWIGGINPNNGDTIYNQQFKGKATLTVDKSSSTAYMELRSLTSEDSAVYYCARDSPVVPGDYWGQGTTLTVSS
VL: DIVMTQSPSSLPVSVGEKVTMRCKSSQSLLYSSNQKNYLAWYQQKSGQSPKLMIYWASTRECGVPDRFTGSGSGTDFTLTISNVKAEDLAVYYCQQYYRYPLTFGVGTKLELK
notes: copies: 2 + 2
As for B1, the Kd in experiment [1] stood at 0.482 nM; in experiment [2], 0.494 nM; in experiment [3] it was 0.262 nM; in experiment [4] it was 0.453 nM; in experiment [5], 0.452 nM.

B2: CSW2-1353 (antibody, V domains shown)
VH: EVQLVESGGGLVQPKGSLKLSCAASGFNFNTYAMNWVRQAPGKGLEWVARIRSKSENYVIYYADSVKDRFTISRDDSQNMLYLQMNNLKTEDTAMYYCVMSYYGNYWFAYWGQGTLVTVSA
VL: DVVVTQTPLSLPVSLGDQASISCRSSQSLVHNNGNTYLHWYLQKPGQSPKLLIYKVSNRFSGVPDRFSGSGSGTDFTLKISRVEAEDLGVYFCSQSTHIPWTFGGGTKLEIK
notes: copies: 2 + 2
As to B2, the Kd came out at 0.114 nM in experiment [3], 0.118 nM in experiment [4] and 0.152 nM in experiment [5].
